The values below come from article PMC13397619.

B1: NLV2 TCR alpha chain (CDR3α only) (parent)
chain: AGPMKTSYDKVI
partner: MLVPMVATV

Variants of B1 are the subject of the experiment. Put plainly: T-Switch: Jurkat TCRβ−/− cells expressing a CDR3 saturation-mutagenesis library, stained with two peptide-HLA-A*02:01 tetramers (original and novel peptide) plus anti-CD3, FACS-sorted into four gates, gDNA sequenced. The settings on record: with HLA-A*02:01 with peptide … (NLV 3-1, the novel peptide), tetramers 1 µg/mL, 30 min on ice, SP, DP and SW gates expanded about 10 days between rounds ('two to three rounds of selection' in the Methods), gate SW: higher = more of the variant in the gate that binds the novel peptide and not the original one = switched binding. Fold enrichment of the CDR3 variant in one FACS gate of a two-tetramer stain, unresolved parent, parent is a CDR3 fragment, scale: fold enrichment, numbering: sequential-on-construct, sequence starts at 1.
With […] (CDR3 as printed); A1V derived by comparing it with the table's wild-type CDR3 AGPMKTSYDKVI, the enrichment stood at 0.
Take […] (CDR3 as printed); A1E derived by comparing it with the table's wild-type CDR3 AGPMKTSYDKVI: the enrichment was determined as 0.
Take […] (CDR3 as printed); D9C derived by comparing it with the table's wild-type CDR3 AGPMKTSYDKVI: the enrichment is 0.
In the case of […] (CDR3 as printed); G2E derived by comparing it with the table's wild-type CDR3 AGPMKTSYDKVI, the enrichment was 0.
On to […] (CDR3 as printed); G2T derived by comparing it with the table's wild-type CDR3 AGPMKTSYDKVI, for which the enrichment was 0.
On to […] (CDR3 as printed); I12G derived by comparing it with the table's wild-type CDR3 AGPMKTSYDKVI, for which the enrichment was 0.
Regarding […] (CDR3 as printed); K5A derived by comparing it with the table's wild-type CDR3 AGPMKTSYDKVI, the enrichment worked out at 0.
In the case of […] (CDR3 as printed); K5L derived by comparing it with the table's wild-type CDR3 AGPMKTSYDKVI, the enrichment turned out to be 0.
Turning to […] (CDR3 as printed); I12K derived by comparing it with the table's wild-type CDR3 AGPMKTSYDKVI, the enrichment amounted to 0.
The same measure for […] (CDR3 as printed); K10C derived by comparing it with the table's wild-type CDR3 AGPMKTSYDKVI: 0; for […] (CDR3 as printed); G2P derived by comparing it with the table's wild-type CDR3 AGPMKTSYDKVI: 0; for […] (CDR3 as printed); K5V derived by comparing it with the table's wild-type CDR3 AGPMKTSYDKVI: 0.
[…] (CDR3 as printed); K10Q derived by comparing it with the table's wild-type CDR3 AGPMKTSYDKVI: the enrichment stood at 0.
The same measure for […] (CDR3 as printed); K10D derived by comparing it with the table's wild-type CDR3 AGPMKTSYDKVI: 0; for […] (CDR3 as printed); D9G derived by comparing it with the table's wild-type CDR3 AGPMKTSYDKVI: 0.
[…] (CDR3 as printed); G2W derived by comparing it with the table's wild-type CDR3 AGPMKTSYDKVI: the enrichment was 0.
Turning to […] (CDR3 as printed); I12D derived by comparing it with the table's wild-type CDR3 AGPMKTSYDKVI, the enrichment came to 0.
Consider […] (CDR3 as printed); G2Y derived by comparing it with the table's wild-type CDR3 AGPMKTSYDKVI, for which the enrichment came out at 0.
For […] (CDR3 as printed); M4F derived by comparing it with the table's wild-type CDR3 AGPMKTSYDKVI, the enrichment amounted to 0.
Turning to […] (CDR3 as printed); K10G derived by comparing it with the table's wild-type CDR3 AGPMKTSYDKVI, the enrichment worked out at 0.
The same measure for […] (CDR3 as printed); M4A derived by comparing it with the table's wild-type CDR3 AGPMKTSYDKVI: 0; for […] (CDR3 as printed); M4C derived by comparing it with the table's wild-type CDR3 AGPMKTSYDKVI: 0; for […] (CDR3 as printed); K5E derived by comparing it with the table's wild-type CDR3 AGPMKTSYDKVI: 0.
Turning to […] (CDR3 as printed); D9V derived by comparing it with the table's wild-type CDR3 AGPMKTSYDKVI, the enrichment is 0.
With […] (CDR3 as printed); G2M derived by comparing it with the table's wild-type CDR3 AGPMKTSYDKVI the figure was 0; with […] (CDR3 as printed); A1W derived by comparing it with the table's wild-type CDR3 AGPMKTSYDKVI, 0.
With […] (CDR3 as printed); K10W derived by comparing it with the table's wild-type CDR3 AGPMKTSYDKVI the figure was 0; with […] (CDR3 as printed); K10L derived by comparing it with the table's wild-type CDR3 AGPMKTSYDKVI, 0.
Consider […] (CDR3 as printed); K10F derived by comparing it with the table's wild-type CDR3 AGPMKTSYDKVI, for which the enrichment worked out at 0.
Consider […] (CDR3 as printed); A1S derived by comparing it with the table's wild-type CDR3 AGPMKTSYDKVI, for which the enrichment came to 0.
The same measure for […] (CDR3 as printed); I12S derived by comparing it with the table's wild-type CDR3 AGPMKTSYDKVI: 0.
The same measure for […] (CDR3 as printed); G2L derived by comparing it with the table's wild-type CDR3 AGPMKTSYDKVI: 0; for […] (CDR3 as printed); D9H derived by comparing it with the table's wild-type CDR3 AGPMKTSYDKVI: 0.
Consider […] (CDR3 as printed); K5D derived by comparing it with the table's wild-type CDR3 AGPMKTSYDKVI, for which the enrichment was 0.
As for […] (CDR3 as printed); A1Y derived by comparing it with the table's wild-type CDR3 AGPMKTSYDKVI, the enrichment stood at 0.533.
For […] (CDR3 as printed); K10S derived by comparing it with the table's wild-type CDR3 AGPMKTSYDKVI, the enrichment is 1.59.
With […] (CDR3 as printed); K5H derived by comparing it with the table's wild-type CDR3 AGPMKTSYDKVI the figure was 0; with […] (CDR3 as printed); I12E derived by comparing it with the table's wild-type CDR3 AGPMKTSYDKVI, 0.
Regarding […] (CDR3 as printed); I12F derived by comparing it with the table's wild-type CDR3 AGPMKTSYDKVI, the enrichment came to 0.
Regarding […] (CDR3 as printed); A1F derived by comparing it with the table's wild-type CDR3 AGPMKTSYDKVI, the enrichment came out at 0.
Consider […] (CDR3 as printed); I12H derived by comparing it with the table's wild-type CDR3 AGPMKTSYDKVI, for which the enrichment amounted to 0.
Turning to […] (CDR3 as printed); K10E derived by comparing it with the table's wild-type CDR3 AGPMKTSYDKVI, the enrichment was determined as 0.402.
[…] (CDR3 as printed); K10M derived by comparing it with the table's wild-type CDR3 AGPMKTSYDKVI: the enrichment stood at 0.
As to […] (CDR3 as printed); A1N derived by comparing it with the table's wild-type CDR3 AGPMKTSYDKVI, the enrichment was found to be 0.
As to […] (CDR3 as printed); G2I derived by comparing it with the table's wild-type CDR3 AGPMKTSYDKVI, the enrichment was 0.
Take […] (CDR3 as printed); A1C derived by comparing it with the table's wild-type CDR3 AGPMKTSYDKVI: the enrichment came to 0.
Take […] (CDR3 as printed); K10A derived by comparing it with the table's wild-type CDR3 AGPMKTSYDKVI: the enrichment amounted to 0.
The same measure for […] (CDR3 as printed); K5Q derived by comparing it with the table's wild-type CDR3 AGPMKTSYDKVI: 0.
With […] (CDR3 as printed); G2F derived by comparing it with the table's wild-type CDR3 AGPMKTSYDKVI, the enrichment stood at 0.
As for […] (CDR3 as printed); I12W derived by comparing it with the table's wild-type CDR3 AGPMKTSYDKVI, the enrichment came out at 0.
For the variant […] (CDR3 as printed); G2D derived by comparing it with the table's wild-type CDR3 AGPMKTSYDKVI, the enrichment came out at 0.
As to […] (CDR3 as printed); K10R derived by comparing it with the table's wild-type CDR3 AGPMKTSYDKVI, the enrichment came to 0.
With […] (CDR3 as printed); D9N derived by comparing it with the table's wild-type CDR3 AGPMKTSYDKVI the figure was 0; with […] (CDR3 as printed); M4E derived by comparing it with the table's wild-type CDR3 AGPMKTSYDKVI, 0.
On to […] (CDR3 as printed); G2R derived by comparing it with the table's wild-type CDR3 AGPMKTSYDKVI, for which the enrichment was 0.
For the variant […] (CDR3 as printed); A1R derived by comparing it with the table's wild-type CDR3 AGPMKTSYDKVI, the enrichment was 0.
For […] (CDR3 as printed); K5T derived by comparing it with the table's wild-type CDR3 AGPMKTSYDKVI, the enrichment came to 0.
On to […] (CDR3 as printed); A1G derived by comparing it with the table's wild-type CDR3 AGPMKTSYDKVI, for which the enrichment came out at 0.
Regarding […] (CDR3 as printed); D9T derived by comparing it with the table's wild-type CDR3 AGPMKTSYDKVI, the enrichment is 0.
For […] (CDR3 as printed); G2C derived by comparing it with the table's wild-type CDR3 AGPMKTSYDKVI, the enrichment came out at 0.
For […] (CDR3 as printed); K10P derived by comparing it with the table's wild-type CDR3 AGPMKTSYDKVI, the enrichment came to 0.
With […] (CDR3 as printed); K5Y derived by comparing it with the table's wild-type CDR3 AGPMKTSYDKVI the figure was 0; with […] (CDR3 as printed); K10I derived by comparing it with the table's wild-type CDR3 AGPMKTSYDKVI, 0.
Regarding […] (CDR3 as printed); D9F derived by comparing it with the table's wild-type CDR3 AGPMKTSYDKVI, the enrichment came to 0.
Regarding […] (CDR3 as printed); G2V derived by comparing it with the table's wild-type CDR3 AGPMKTSYDKVI, the enrichment was determined as 0.
For […] (CDR3 as printed); G2A derived by comparing it with the table's wild-type CDR3 AGPMKTSYDKVI, the enrichment came to 0.
Turning to […] (CDR3 as printed); G2H derived by comparing it with the table's wild-type CDR3 AGPMKTSYDKVI, the enrichment is 0.
Consider […] (CDR3 as printed); G2S derived by comparing it with the table's wild-type CDR3 AGPMKTSYDKVI, for which the enrichment stood at 0.
As to […] (CDR3 as printed); K5M derived by comparing it with the table's wild-type CDR3 AGPMKTSYDKVI, the enrichment is 0.
For […] (CDR3 as printed); K5S derived by comparing it with the table's wild-type CDR3 AGPMKTSYDKVI, the enrichment turned out to be 0.
[…] (CDR3 as printed); K5G derived by comparing it with the table's wild-type CDR3 AGPMKTSYDKVI: the enrichment is 0.
As for […] (CDR3 as printed); D9M derived by comparing it with the table's wild-type CDR3 AGPMKTSYDKVI, the enrichment was 0.
Turning to […] (CDR3 as printed); K10V derived by comparing it with the table's wild-type CDR3 AGPMKTSYDKVI, the enrichment was determined as 0.
As to […] (CDR3 as printed); A1L derived by comparing it with the table's wild-type CDR3 AGPMKTSYDKVI, the enrichment stood at 0.
For […] (CDR3 as printed); K5W derived by comparing it with the table's wild-type CDR3 AGPMKTSYDKVI, the enrichment was found to be 0.
On to […] (CDR3 as printed); D9W derived by comparing it with the table's wild-type CDR3 AGPMKTSYDKVI, for which the enrichment was 0.
Regarding […] (CDR3 as printed); K10T derived by comparing it with the table's wild-type CDR3 AGPMKTSYDKVI, the enrichment amounted to 0.
Regarding […] (CDR3 as printed); K5C derived by comparing it with the table's wild-type CDR3 AGPMKTSYDKVI, the enrichment came to 0.
On to […] (CDR3 as printed); K10H derived by comparing it with the table's wild-type CDR3 AGPMKTSYDKVI, for which the enrichment worked out at 0.
Turning to […] (CDR3 as printed); D9K derived by comparing it with the table's wild-type CDR3 AGPMKTSYDKVI, the enrichment turned out to be 0.
As for […] (CDR3 as printed); K5F derived by comparing it with the table's wild-type CDR3 AGPMKTSYDKVI, the enrichment was 0.
As to […] (CDR3 as printed); I12V derived by comparing it with the table's wild-type CDR3 AGPMKTSYDKVI, the enrichment turned out to be 0.
With […] (CDR3 as printed); D9Y derived by comparing it with the table's wild-type CDR3 AGPMKTSYDKVI, the enrichment worked out at 0.
With […] (CDR3 as printed); A1D derived by comparing it with the table's wild-type CDR3 AGPMKTSYDKVI the figure was 0.
